In patent US20220402981A1:

Experiments:
[1] = biological target: DDB1ΔB-DCAF15biotin (human) (UniProt Q16531); assay: TR-FRET dimerization assay; the compound E7820 is titrated (EC50 is of the compound) to DDB1ΔB-DCAF15 in the presence of BodipyFL-RBM23RRM2-WT, FIG. 5E
[2] = biological target: DDB1ΔB-DCAF15biotin-DDA1 (human) (UniProt Q16531); assay: TR-FRET with E7820; DDB1-DCAF15-DDA1 against DDB1-DCAF15
[3] = biological target: DDB1ΔB-DCAF15biotin (human) (UniProt Q16531); assay: TR-FRET, BodipyFL-RBM39RRM2 titrated to DDB1ΔB-DCAF15biotin in the presence of E7820 at 50 µM; apparent KD
[4] = biological target: DDB1ΔB-DCAF15biotin (human) (UniProt Q16531); assay: TR-FRET, BodipyFL-RBM39RRM2 titrated to DDB1ΔB-DCAF15biotin in the presence of indisulam at 50 µM; apparent KD
[5] = biological target: DDB1ΔB-DCAF15biotin (human) (UniProt Q16531); assay: TR-FRET, BodipyFL-RBM39RRM2 titrated to DDB1ΔB-DCAF15biotin in the presence of tasisulam at 50 µM; apparent KD
[6] = biological target: DDB1ΔB-DCAF15biotin (human) (UniProt Q16531); assay: TR-FRET, BodipyFL-RBM39RRM2 titrated to DDB1ΔB-DCAF15biotin in the presence of E7820 (50 µM), FIG. 3C; apparent KD
[7] = biological target: DDB1ΔB-DCAF15biotin (human) (UniProt Q16531); assay: TR-FRET dimerization assay; the compound E7820 is titrated (EC50 is of the compound), both proteins at 200 nM, FIG. 7F
[8] = biological target: DDB1ΔB-DCAF15biotin-DDA1 (human) (UniProt Q16531); assay: TR-FRET, BodipyFL-RBM39RRM2 titrated to DDB1ΔB-DCAF15biotin-DDA1 in the presence of E7820 (50 µM), FIG. 3C; apparent KD
[9] = biological target: DDB1ΔB-DCAF15biotin (human) (UniProt Q16531); assay: TR-FRET dimerization assay; the compound indisulam is titrated (EC50 is of the compound), both proteins at 200 nM, FIG. 7F
[10] = biological target: DDB1ΔB-DCAF15biotin (human) (UniProt Q16531); assay: TR-FRET dimerization assay; the compound tasisulam is titrated (EC50 is of the compound), both proteins at 200 nM, FIG. 7F
[11] = biological target: DDB1ΔB-DCAF15biotin-DDA1 (human) (UniProt Q16531); assay: TR-FRET dimerization assay; the compound E7820 is titrated (EC50 is of the compound) to DDB1ΔB-DCAF15biotin-DDA1 and BodipyFL-RBM39RRM2, FIG. 3D

Chain of BodipyFL-RBM39RRM2 (Q14498 245-332): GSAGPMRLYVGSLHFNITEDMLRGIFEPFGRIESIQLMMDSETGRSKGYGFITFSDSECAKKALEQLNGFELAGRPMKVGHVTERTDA

| Substance | EC50 [1] | fold strengthening of apparent affinity against the complex without DDA1 [2] | Kd [3] | Kd [4] | Kd [5] | Kd [6] | EC50 [7] | Kd [8] | EC50 [9] | EC50 [10] | EC50 [11] |
| --- | --- | --- | --- | --- | --- | --- | --- | --- | --- | --- | --- |
| BodipyFL-RBM23RRM2-WT (from UniProt Q86U06 263-341) | 1000 nM | – | – | – | – | – | – | – | – | – | – |
| BodipyFL-RBM39RRM2 (from UniProt Q14498 245-332) | – | 3 fold | 2000 nM | 2100 nM | 3500 nM | 1900 nM | 740 nM | 620 nM | 3200 nM | > 10000 nM | 330 nM |
